Source: patent publication US20170137818, “APTAMER INHIBITING BIOLOGICAL ACTIVITY OF AUTOTAXIN BY BINDING WITH AUTOTAXIN, AND USE THEREOF” (RIBOMIC INC., published 2017)

B1: SEQ 5 aptamer (ssDNA)
DNA: GTGGTCTAGCTGTACTCATGGACGGAACCAGAATACTTTTGGTCTCCATTGAGTACGCCACAGTCAACGAGCTA
B2: SEQ 4 aptamer (ssDNA)
DNA: GTGGTCTAGCTGTACTCTCCGGAACCAGAGCAATTTGGTCGAGCGCTATCGGATGGTCCACAGTCAACGAGCTA
B3: 12(25) (ssDNA)
DNA: CCTGGACGGAACCAGAATACTTTTGGTCTCCAGG
modifications: 2'-OMe C1,C2,T3,G4,G5,C7,G9,C12,C13,A14,G15,T18,A19,C20,A32,G33,G34; 5' idT, 3' idT

How the values were obtained:
autotaxin (ENPP2/NPP2) = autotaxin (ENPP2/NPP2) (Homo sapiens, UniProt Q13822 Q13822:36-863); test: inhibition; NPP2 assay, 37 C
[1] = molecular target: autotaxin (endogenous, human pooled serum) (Homo sapiens, UniProt Q13822 Q13822:36-863); test: inhibition; LPA production in serum, 5.0 uM

| Binder | IC50 (autotaxin (ENPP2/NPP2)) [nM] | activity [1] [% inhibition] |
| --- | --- | --- |
| B1 | 11 |  |
| GCTGGCCGGAACCGTGCATATGGTCGCCAGC (ssDNA) [SEQ 29 aptamer] | 11 |  |
| GTACTCATGGACGGAACCAGAATACTTTTGGTCTCCATTGAGTAC (ssDNA) [SEQ 11 aptamer] | 12 |  |
| CCTGGACGGAACCAGAATACTTTTGGTCTCCAGG (ssDNA) [SEQ 12 aptamer] | 12 |  |
| B2 | 16 |  |
| CTGGACGGAACCAGAATACTTTTGGTCTCCAG (ssDNA) [SEQ 16 aptamer] | 18 |  |
| CCTGGACGGAACCAGAATACTTTTGGTCTCCAGG (ssDNA, 2'-OMe C12,C13) [12(4)] |  | 82 |
| CCTGGACGGAACCAGAATACTTTTGGTCTCCAGG (ssDNA, 2'-OMe T23,T24) [12(5)] |  | 15 |
| CCTGGACGGAACCAGAATACTTTTGGTCTCCAGG (ssDNA, 2'-OMe G25,G26) [12(6)] |  | 63 |
| CCTGGACGGAACCAGAATACTTTTGGTCTCCAGG (ssDNA, 2'-OMe A14,G15) [12(7)] |  | 88 |
| CCTGGACGGAACCAGAATACTTTTGGTCTCCAGG (ssDNA, 2'-OMe A6) [12(8)] |  | 69 |
| CCTGGACGGAACCAGAATACTTTTGGTCTCCAGG (ssDNA, 2'-OMe T29) [12(9)] |  | 78 |
| CCTGGACGGAACCAGAATACTTTTGGTCTCCAGG (ssDNA, 2'-OMe A11) [12(10)] |  | 26 |
| CCTGGACGGAACCAGAATACTTTTGGTCTCCAGG (ssDNA, 2'-OMe T27) [12(11)] |  | 38 |
| CCTGGACGGAACCAGAATACTTTTGGTCTCCAGG (ssDNA, 2'-OMe C7) [12(12)] |  | 94 |
| CCTGGACGGAACCAGAATACTTTTGGTCTCCAGG (ssDNA, 2'-OMe G8) [12(13)] |  | 74 |
| CCTGGACGGAACCAGAATACTTTTGGTCTCCAGG (ssDNA, 2'-OMe G9) [12(14)] |  | 95 |
| CCTGGACGGAACCAGAATACTTTTGGTCTCCAGG (ssDNA, 2'-OMe A10) [12(15)] |  | 68 |
| CCTGGACGGAACCAGAATACTTTTGGTCTCCAGG (ssDNA, 2'-OMe A17) [12(16)] |  | 83 |
| CCTGGACGGAACCAGAATACTTTTGGTCTCCAGG (ssDNA, 2'-OMe T18) [12(17)] |  | 83 |
| CCTGGACGGAACCAGAATACTTTTGGTCTCCAGG (ssDNA, 2'-OMe A19) [12(18)] |  | 93 |
| CCTGGACGGAACCAGAATACTTTTGGTCTCCAGG (ssDNA, 2'-OMe C20) [12(19)] |  | 90 |

| Binder | IC50 (autotaxin (ENPP2/NPP2)) [nM] | activity [1] [% inhibition] |
| --- | --- | --- |
| CCTGGACGGAACCAGAATACTTTTGGTCTCCAGG (ssDNA, 2'-OMe T21) [12(20)] |  | 76 |
| CCTGGACGGAACCAGAATACTTTTGGTCTCCAGG (ssDNA, 2'-OMe G4,G5) [12(21)] |  | 84 |
| CCTGGACGGAACCAGAATACTTTTGGTCTCCAGG (ssDNA, 5' idT, 3' idT) [12(22)] |  | 91 |
| CCTGGACGGAACCAGAATACTTTTGGTCTCCAGG (ssDNA, 5' 40 kDa PEG (GL2-400GS2) via ssH linker, 3' idT) [12(23)] |  | 90 |
| CCTGGACGGAACCAGAATACTTTTGGTCTCCAGG (ssDNA, 2'-OMe C7,G9,A14,G15,A19,C20,A32,G33,G34; 5' idT, 3' idT) [12(24)] |  | 96 |
| B3 |  | 84 |
| CCTGGACGGAACCAGAATACTTTTGGTCTCCAGG (ssDNA, 2'-OMe C28) [12(26)] |  | 35 |
| CCTGGACGGAACCAGAATACTTTTGGTCTCCAGG (ssDNA, 2'-OMe A16) [12(27)] |  | 86 |
| CCTGGACGGAACCAGAATACTTTTGGTCTCCAGG (ssDNA, 2'-OMe T22) [12(28)] |  | 64 |
| CCTGGACGGAACCAGAATACTTTTGGTCTCCAGG (ssDNA, 2'-OMe G26) [12(29)] |  | 84 |
| CCTGGACGGAACCAGAATACTTTTGGTCTCCAGG (ssDNA, 2'-OMe G25) [12(30)] |  | 75 |
| CCTGGACGGAACCAGAATACTTTTGGTCTCCAGG (ssDNA, 2'-OMe C12) [12(31)] |  | 87 |
| CCTGGACGGAACCAGAATACTTTTGGTCTCCAGG (ssDNA, 2'-OMe C13) [12(32)] |  | 85 |
| CCTGGACGGAACCAGAATACTTTTGGTCTCCAGG (ssDNA, 2'-OMe T24) [12(33)] |  | 62 |
| CCTGGACGGAACCAGAATACTTTTGGTCTCCAGG (ssDNA, 2'-OMe T23) [12(34)] |  | 55 |
| CCTGGACGGAACCAGAATACTTTTGGTCTCCAGG (ssDNA, 2'-OMe G4) [12(35)] |  | 82 |
| CCTGGACGGAACCAGAATACTTTTGGTCTCCAGG (ssDNA, 2'-OMe G5) [12(36)] |  | 84 |
| CCTGGACGGAACCAGAATACTTTTGGTCTCCAGG (ssDNA, 2'-OMe C30) [12(37)] |  | 85 |
| CCTGGACGGAACCAGAATACTTTTGGTCTCCAGG (ssDNA, 2'-OMe C31) [12(38)] |  | 83 |
| CCTGGACGGAACCAGAATACTTTTGGTCTCCAGG (ssDNA, 2'-OMe T3) [12(39)] |  | 85 |
| CCTGGACGGAACCAGAATACTTTTGGTCTCCAGG (ssDNA, 2'-OMe C2) [12(40)] |  | 84 |
| CCTGGACGGAACCAGAATACTTTTGGTCTCCAGG (ssDNA, 2'-OMe C1) [12(41)] |  | 85 |
